Data taken from the RNAGym collection of RNA variant scans (doi:10.1073/pnas.2313332121).
Fewer inactive variants are shown than the library holds.

B1: TPR 5TU (parent)
chain: GGAUCUUCUCGAUCUAACAAAAAAGACAAAUCUGCCACAAAGCUUGAGAGCAUCUUCGGAUGCAGAGGCGGCAGCCUUCGGUGGCGCGAUAGCGCCAACGUUCUCAACUAUGACACGCAAAACGCGUGCUCCGUUGAAUGGAGUUUAUCAUG

Variants of: B1
Experiment: polymerase ribozyme fitness, log enrichment relative to wild type (log ratio); higher = more active; in vitro selection for triplet polymerase activity
In short: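 PCR was used to build mutant libraries for each subunit of a heterodimeric triplet polymerase ribozyme, which were then transcribed. A single in vitro selection round, in triplicate, used a frozen incubation at −7 °C and recovered extended constructs by gel excision, streptavidin beads and RT-PCR. Fitness is the logarithm of genotype enrichment relative to wild-type enrichment, averaged over replicates with inverse-variance weights. The logarithm is base 2, and after Illumina sequencing only genotypes with ≥10 input reads and ≥1 read per output were kept.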

| Variant | polymerase ribozyme fitness (log ratio) |
| --- | --- |
| G59C G74A G80C U127G A142G | ≤ -4.2 |
| A60C A73G C93U | ≤ -4.2 |
| A60G A115G U144C U146A A150U | -3.85 |
| G59C G71A A115G | -4.09 |
| G58C A97G A98U U145C | -0.616 |
| G59U G88C C116G | -3.85 |
| G58U C123U | 0.837 |
| G59C G86A A89G | -4 |
| G59A U127C | -1.23 |
| G59U A60C | -2.96 |
| G59C A60C U77A C85A G140A U144C | ≤ -4.2 |
| G59U C93A G152U | ≤ -4.2 |
| G59U G88U A121U U127A U134G | ≤ -4.2 |
| G58U G86C | -1.98 |
| G59C U82G C85A U102G | -4.09 |
| G59C G86C G143U | ≤ -4.2 |
| G59A C118A | -0.536 |
| G59A G124U C125G G136U U139A U146A | ≤ -4.2 |
| G59A G84U A98G A115U | -3.58 |
| G59U C69U C87G C105G C129A G141A | ≤ -4.2 |
| G59A C96A G117U | -0.271 |

| Variant | polymerase ribozyme fitness (log ratio) |
| --- | --- |
| G59A C87U A121U | -0.901 |
| G59C C87A U109A G133C | ≤ -4.2 |
| G58C U61A G74U U77G C79U G80C C87A | ≤ -4.2 |
| A60G A73U C93U | -1.38 |
| G59U U90G A91G C95A G126C U146G | ≤ -4.2 |
| G58C C63U C95G | -2.14 |
| A60C C103A | ≤ -4.2 |
| G59A U78A G92U C96A C114U A121U | ≤ -4.2 |
| G58U G86A U130C | 0.803 |
| G58C U102A C114A | -4.12 |
| G59A C99U A115G | -1.83 |
| A60C C93U | -2.64 |
| A60C C93A | -3.64 |
| G59C A97U U139G | -0.518 |
| G59U C75A C96G | ≤ -4.2 |
| A60C C76U G88U C116G U135G A142G U148G | ≤ -4.2 |
| G59U G124C U134G U146A | -3.17 |
| G58U C85A C95G C96U | -3.24 |
| G59C A98U C125A G140C | ≤ -4.2 |
| A60G C69A G88A C95G U101A A106C A107G A119C U148A | ≤ -4.2 |
| G58C C72U A150U | 0.398 |

| Variant | polymerase ribozyme fitness (log ratio) |
| --- | --- |
| G58U C96A G126C | 0.641 |
| G59C A120U A122C A147G | -1.22 |
| G59C G62A A122U U134G | -3.13 |
| G59U C75U C76U C93G A115U | ≤ -4.2 |
| G59A C87G G140C | ≤ -4.2 |
| A60C A97U | -1.64 |
| G59U G84U | -2.72 |
| G58U U82A C116U | 0.803 |
| G59C U127G U130C | ≤ -4.2 |
| G58C C72U U101G | 0.371 |
| G59U C87U C108U C125A | -3.4 |
| G59U C96U | -0.292 |
| G59U C96A | -0.703 |
| G59C A89U C96G A107G | ≤ -4.2 |
| G59A C85G G100A A115U U127G G141A | ≤ -4.2 |
| G58C G68A G94U C96G | ≤ -4.2 |
| G59A A110U | -3.64 |
| G59A G94A A150C | ≤ -4.2 |
| G59A C116U | -0.293 |
| G59A U78G A91U U102G | ≤ -4.2 |
| G58C G80C C95U | ≤ -4.2 |

| Variant | polymerase ribozyme fitness (log ratio) |
| --- | --- |
| G59U A97C C99G | -3.18 |
| G58C C75G C76G C85U | ≤ -4.2 |
| G59A U78C G88U C96U U109G G140C | ≤ -4.2 |
| G59C G84A | -0.218 |
| G58C U61G U146G | -3.76 |
| A60C C85A C125G U144G | -2.67 |
| G59U A120U A122U | -0.451 |
| G58C G94C | -0.872 |
| G59C A110G | -3.79 |
| A60C U61G G92A A110U | -3.93 |
| G59C G92A | -2.89 |
| G59A | -0.0739 |
| G59U | -0.206 |
| G59C | 0.0972 |
| G58C U82G C132A | -2.83 |
| G58C C79U C85G G141U | ≤ -4.2 |
| G59C C95U A110G C116A | -3.2 |
| G58C G80A C95U U127G C149G | ≤ -4.2 |
| G58C G84A G112U | ≤ -4.2 |
| G59C C69A G133C | -1.75 |
| G59C C79U | -3.43 |
